Values belong to the binder of their own block, whether it stands above or below them.
Tests used:
[1] = target: Human BTN3A, membrane displayed on cells (human PBMCs, Daudi cells, SKOV-3 cells) (human), O00481; experiment: cell-based or functional assay
[2] = target: T1, Human BTN3A1 His-tagged antigen (Sino Biological Cat. No. 15973-H08H) (human, UniProt O00481 30-254); experiment: SPR Biacore T200, single cycle kinetics, BTN3A1-His captured on anti-His CM5 chip, Fab as analyte, 1:1 model, 25 C
T1 construct: Bought recombinant protein; also called recombinant human BTN3A1-His; not shown: His tag
Experimental: All single cycle kinetic experiments were run at 25° C. with HBS-P+ running buffer (pH 7.4) containing 0.1% BSA (GE Healthcare, Little Chalfont, UK).
Human BTN3A1 His-tagged antigen (Sino Biological, Beijing, China) was diluted in running buffer to a final concentration of 0.4 μg/mL. At the start of each cycle, BTN3A1-His was captured onto Fc2 of CM5 sensor chip pre-coupled using a His capture kit (GE Healthcare, Little Chalfont, UK) with standard amine chemistry at a flow rate of 10 μL/min. An immobilization level (RL) of ˜17 RU or 8 RU, the different theoretical values to obtain a RMax of ˜25 RU was used for the analytes Fab and F(ab′)₂ respectively. The surface was then allowed to stabilize. Single cycle kinetics data was obtained with the purified samples (Fab and F(ab′)₂)) at a flow rate of 40 μL/min to minimize any potential mass transfer effects. The signal from the reference channel Fc1 (no antigen capture) was subtracted from that of Fc2 to correct for differences in non-specific binding to the reference surface. […] The signal for BTN3A1-His blank runs (no analyte) were subtracted to correct for differences in surface stability. The association phase for the five injections of increasing concentrations was monitored for 240 seconds each time and a single dissociation phase was measured for 2000 seconds following the last injection of analyte. Regeneration of the chip surface was conducted using two injections of 10 mM glycine-HCL pH 1.5 followed by a stabilization period of 240 seconds.
Raw sensorgrams were fitted with a 1:1 model for Fab samples and with a bivalent analyte model for F(ab′)₂ samples in agreement with the different valences of the analytes. Kinetic constants obtained are detailed in Table 1 and Table 2.

[3] = target: T1, Human BTN3A1 His-tagged antigen (Sino …); experiment: SPR Biacore T200, single cycle kinetics, BTN3A1-His captured on anti-His CM5 chip, IgG as analyte, bivalent analyte model (ka 1), 25 C
Experimental: (§1) Human BTN3A1 His-tagged antigen (Sino Biological, Beijing, China) was diluted in running buffer to a final concentration of 0.4 μg/mL. At the start of each cycle, human BTN3A1-His was captured onto Fc2 of CM5 sensor chip pre-coupled using a His capture kit (GE Healthcare, Little Chalfont, UK) with standard amine chemistry at a flow rate of 10 μL/min. An immobilization level (RL) of ˜34 RU, 16 RU or 11 RU, the different theoretical values to obtain a RMax of ˜50 RU was used for the analytes Fab, F(ab′)₂ and IgG respectively. The surface was then allowed to stabilize. Single cycle kinetic data was obtained with the purified samples (Fab, F(ab′)₂ and IgG) at a flow rate of 40 μL/min to minimize any potential mass transfer effects. The signal from the reference channel Fc1 (no antigen capture) was subtracted from that of Fc2 to correct for differences in non-specific binding to the reference surface. The signal for human BTN3A1-His blank runs (no analyte) were subtracted to correct for differences in surface stability. The association phase for the five injections of increasing concentrations was monitored for 240 seconds each time and a single dissociation phase was measured for 1400 seconds following the last injection of analyte. Regeneration of the chip surface was conducted using two injections of 10 mM glycine-HCL pH 1.5 followed by a stabilization period of 240 seconds.

[4] = target: T1, Human BTN3A1 His-tagged antigen (Sino …); experiment: BLI OctetRed96, antibody loaded on FAB2G (anti-human CH1) sensors, human BTN3A1 as analyte 1.87-60 nM, 1:1 model, 30 C
Experimental: (§2) All runs (including loading, equilibration, association/dipping of sensors into analyte, dissociation and regeneration) were performed in black 96-well plates (Greiner) at 30° C. with shaking 1000 rpm using an OctetRed96 (ForteBio). […] The association of antibody or fragments with various concentrations of human BTN3A1 (60, 30, 15, 7.5, 3.75 and 1.87 nM) was monitored for 300 s, and the dissociation was followed for typically 500 s in kinetic buffer. Fitting of the data and constant measurements were performed with the Octet Red system software (version 7.1) using the 1:1 model. A control with an irrelevant antibody was used in order to assess the absence of non-specific binding of the target protein.

[5] = target: T1, Human BTN3A1 His-tagged antigen (Sino …); experiment: SPR Biacore T200, single cycle kinetics, BTN3A1-His captured on anti-His CM5 chip, IgG as analyte, bivalent analyte model (kd 1), 25 C
Experimental: as §1

[6] = target: T1, Human BTN3A1 His-tagged antigen (Sino …); experiment: SPR Biacore T200, single cycle kinetics, BTN3A1-His captured on anti-His CM5 chip, IgG as analyte, bivalent analyte model (kd 2), 25 C
Experimental: as §1

[7] = target: T1, Human BTN3A1 His-tagged antigen (Sino …); experiment: SPR Biacore T200, single cycle kinetics, BTN3A1-His captured on anti-His CM5 chip, IgG as analyte, bivalent analyte model (ka 2), 25 C
Experimental: as §1

[8] = target: T1, Human BTN3A1 His-tagged antigen (Sino …); experiment: competition ELISA on coated BTN3A1-His, competitor murine 103.2
Experimental: Chimeric (VH0/Vκ0) and irrelevant human IgG4 (S241P, L248E) were tested on each plate for comparison.
BTN3A1 was diluted in 1×PBS to 0.5 μg/ml and 100 μL/well was coated overnight at 4° C. on a 96-well ELISA plate. The following day, the plate was washed 3× with 1×PBS/0.05% Tween (PBS-T) and blocked with 200 μL of 2% milk/PBS for 1 hour at room temperature. […] After washing the Nunc ELISA plate 3× with PBS-T, 100 μL of murine/test antibody mix was added to the ELISA plate. After one hour incubation at room temperature, the plate was washed 3 times with PBS-T and 100 μL of anti-mouse Fc HRP-labelled secondary antibody (Sigma, Dorset, UK) diluted 1:1000 in blocking buffer was applied for 1 hour at room temperature to detect bound murine antibody. The plate was washed 3 times with PBS-T following which 100 μL of TMB substrate was added and incubated for five minutes at room temperature. The reaction was stopped with 100 μl of 3.0 M hydrochloric acid and absorbance was read immediately using a Dynex plate reader at 450 nm.

[9] = target: T1, Human BTN3A1 His-tagged antigen (Sino …); experiment: SPR Biacore T200, multi-cycle kinetics, antibody captured on Protein A, BTN3A1-His as analyte, 1:1 model
Experimental: Purified antibodies were diluted to a concentration of 2 μg/mL in 2% BSA/PBS. At the start of each cycle, each antibody was captured on the Protein A at a density (RL) of 146.5 RU (theoretical value to obtain an RMax of ˜50 RU). Following capture, the surface was allowed to stabilize before injection of the BTN3A1 antigen (Sino Biological cat. no. 15973-H08H). BTN3A1 was titrated in 0.1% BSA/HBS-P+(running buffer) in a two-fold dilution range from 12 to 0.375 nM. The association phase was monitored for 360 seconds and the dissociation phase for 45 minutes (2700 seconds). Kinetic data was obtained using a flow rate of 40 μL/min to minimize any potential mass transfer effects. Regeneration of the Protein A surface was conducted using two injections of 10 mM glycine-HCL pH 1.5 at the end of each cycle. Two blanks (no BTN3A1) and a repeat of a single concentration of the analyte were performed for each tested antibody to check the stability of the surface and analyte over the kinetic cycles. The chimeric antibody was run twice. The signal from the reference channel Fc1 was subtracted from that of Fc2, Fc3 and Fc4 to correct for differences in non-specific binding to a reference surface. Additionally, blank runs were subtracted for each Fc to correct any antigen-independent signal variation, such as drift. […]

[10] = target: T1, Human BTN3A1 His-tagged antigen (Sino …); experiment: BLI OctetRed96, Fab loaded on FAB2G (anti-human CH1) sensors, human BTN3A1 as analyte 1.87-60 nM, 1:1 model, 30 C
Experimental: as §2

[11] = target: T1, Human BTN3A1 His-tagged antigen (Sino …); experiment: SPR Biacore T200, single cycle kinetics, BTN3A1-His captured on anti-His CM5 chip, Fab as analyte, 1:1 model, 25 C; remark: listed apart in the source
Experimental: as §1

T1 sequence (O00481 30-254 limits assumed): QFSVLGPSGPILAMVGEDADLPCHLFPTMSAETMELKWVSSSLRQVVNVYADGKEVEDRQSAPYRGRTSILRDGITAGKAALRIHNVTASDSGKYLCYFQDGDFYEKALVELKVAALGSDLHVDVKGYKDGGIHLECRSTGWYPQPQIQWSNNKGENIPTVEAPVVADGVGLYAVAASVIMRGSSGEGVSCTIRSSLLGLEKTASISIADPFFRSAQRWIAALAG

B1: Chimeric 103.2 antibody (VH0/Vκ0), full-length IgG (antibody, V domains shown)
VH: QVQMQQSGAEVVRPGTSVKVSCKASGYAFTSYLIHWIKQRPGQGLEWIGVINPRSGDSHYNEKFKDRTTLTADQSSSTAYMQLSSLTSDDSAVYFCARSDYGAYWGQGTLVTVSS
VL: DIVLTQSPVTLSVTPGDSVSLSCRASQSISNNLHWYRQKSHESPRLLIKYASQSIFGIPSRFSGSGSGTEFTLSINSVETEDFGIYFCQQSNSWPHTFGTGTKLELK
% CD107+ of Vγ9Vδ2 T cells, co-culture with Daudi cells, antibody at 10 µg/mL [1]: 6.96%

B2: Chimeric 103.2 Fab fragment (Fab, V domains shown)
VH: B1 VH
VL: B1 VL
Kd [2]: 1.42 nM | koff [2]: 0.000782 s⁻¹ | kon [2]: 551000 M⁻¹ s⁻¹ | % CD107+ of Vγ9Vδ2 T cells, co-culture with Daudi cells, fragment at 10 µg/mL [1]: 66.7%

B4: 103.2 humanized variant VH4/Vκ4 (IgG4 format of the humanization screen) (antibody, V domains shown)
VH: QVQMQQSGAEVKKPGASVKVSCKASGYAFTSYLIHWIKQRPGQGLEWIGVINPRSGDSHYNEKFKDRVTMTADQSISTAYMELSRLRSDDTAVYYCARSDYGAYWGQGTLVTVSS
VL: EIVLTQSPATLSVSPGERATLSCRASQSISNNLHWYQQKPGQAPRLLIKYASQSAFGIPARFSGSGSGTEFTLTISSLQSEDFAVYFCQQSNSWPHTFGQGTKLEIK
notes: It has the same variable regions as hu103.2, which is the later IgG1 Fc-silent construct
IC50 relative to chimeric [8]: ≤ 2 fold of chimeric (VH0/Vκ0) | affinity (KD) relative to chimeric [9]: ≤ 2 fold of 103.2 chimeric (VH0/Vκ0)

The remaining lines, values ahead:

kon [3]: 430000 M⁻¹ s⁻¹ | Kd [4]: 1.44 nM | koff [4]: 0.00028 s⁻¹ | kon [4]: 194000 M⁻¹ s⁻¹ | koff [5]: 0.000352 s⁻¹ | kd 2 [6]: 17.6 s⁻¹ | % CD25+ of Vγ9Vδ2 T cells within PBMCs, 67 nM, 5 days [1]: 7.9% | % CTV dilution of Vγ9Vδ2 T cells within PBMCs, 67 nM, 5 days [1]: 9.5% | ka 2 [7]: 9.28 M⁻¹ s⁻¹
B3: Humanized 103.2 (hu103.2) full-length antibody: 103.2 VH4/Vκ4 IgG1 L247F L248E P350S dK (antibody, V domains shown)
VH: B4 VH
VL: B4 VL
notes: also called hu103.2 (IgG)

Kd [10]: 2.43 nM | koff [10]: 0.000419 s⁻¹ | kon [10]: 172000 M⁻¹ s⁻¹ | Kd [11]: 1.26 nM | koff [11]: 0.00138 s⁻¹ | kon [11]: 1.1e+06 M⁻¹ s⁻¹ | % CD25+ of Vγ9Vδ2 T cells within PBMCs, 67 nM, 5 days [1]: 32.7% | % CTV dilution of Vγ9Vδ2 T cells within PBMCs, 67 nM, 5 days [1]: 45.3% | EC50 (nM) in Vγ9Vδ2 T cell degranulation assay (CD107) against Daudi [1]: 0.91 nM | EC50 (nM) in Vγ9Vδ2 T cell degranulation assay (CD107) against SKOV-3 [1]: 0.08 nM
B5: Humanized 103.2 (hu103.2) Fab fragment (Fab, V domains shown)
VH: B4 VH
VL: B4 VL

From patent publication US20220073619A1 (IMCHECK THERAPEUTICS, published 2022)
